Experimental data from IntAct's records for PubMed 30564455.

Target: ddb1_human DDB1 (UniProt Q16531)
Sequence (Q16531 whole entry): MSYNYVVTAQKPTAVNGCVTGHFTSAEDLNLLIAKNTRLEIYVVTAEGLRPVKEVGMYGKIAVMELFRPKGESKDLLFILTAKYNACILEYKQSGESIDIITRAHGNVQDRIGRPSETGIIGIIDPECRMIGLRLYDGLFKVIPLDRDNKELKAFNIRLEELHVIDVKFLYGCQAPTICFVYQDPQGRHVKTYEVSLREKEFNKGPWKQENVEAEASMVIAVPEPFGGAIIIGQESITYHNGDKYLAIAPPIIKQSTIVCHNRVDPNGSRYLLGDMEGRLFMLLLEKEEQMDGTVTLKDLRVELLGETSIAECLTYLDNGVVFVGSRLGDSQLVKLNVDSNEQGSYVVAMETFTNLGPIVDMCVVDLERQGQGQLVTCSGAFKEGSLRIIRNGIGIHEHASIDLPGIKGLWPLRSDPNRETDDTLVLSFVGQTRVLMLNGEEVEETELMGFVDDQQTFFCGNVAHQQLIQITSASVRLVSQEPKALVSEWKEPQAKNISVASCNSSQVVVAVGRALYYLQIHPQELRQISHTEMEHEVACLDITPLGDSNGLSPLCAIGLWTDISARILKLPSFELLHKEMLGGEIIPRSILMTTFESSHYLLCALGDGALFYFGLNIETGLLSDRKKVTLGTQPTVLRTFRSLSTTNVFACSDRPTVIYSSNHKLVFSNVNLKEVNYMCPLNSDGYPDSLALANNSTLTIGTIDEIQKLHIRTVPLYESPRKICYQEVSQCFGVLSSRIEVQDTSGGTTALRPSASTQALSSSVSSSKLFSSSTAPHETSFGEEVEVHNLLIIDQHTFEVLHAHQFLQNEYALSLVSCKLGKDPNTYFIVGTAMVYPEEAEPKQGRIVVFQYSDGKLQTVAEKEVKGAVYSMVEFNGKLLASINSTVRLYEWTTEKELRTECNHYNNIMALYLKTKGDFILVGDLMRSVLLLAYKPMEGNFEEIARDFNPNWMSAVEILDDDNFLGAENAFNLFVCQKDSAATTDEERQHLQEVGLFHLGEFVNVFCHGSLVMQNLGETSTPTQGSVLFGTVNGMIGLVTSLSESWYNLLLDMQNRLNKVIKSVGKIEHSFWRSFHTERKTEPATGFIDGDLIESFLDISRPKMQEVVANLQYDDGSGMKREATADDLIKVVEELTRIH

Effect of a mutation on the interaction, disrupting interaction strength:
DET1- and DDB1-associated protein 1 (Homo sapiens) (from UniProt Q9BW61) F16D
DET1- and DDB1-associated protein 1 (Homo sapiens) (from UniProt Q9BW61) H20D
DET1- and DDB1-associated protein 1 (Homo sapiens) (from UniProt Q9BW61) N15D
DET1- and DDB1-associated protein 1 (Homo sapiens) (from UniProt Q9BW61) P9D
